Substrate: O=C1Oc2cc(O)ccc2/C1=C\c1ccc(O)cc1
Conditions: Bos taurus
Description: Activity at calf thymus gland topoisomerase 1 assessed as conversion of supercoiled pBR322 DNA to relaxed form by Lineweaver-Burke plot

B1: DNA topoisomerase (Bos taurus), A0JN73 (protein)
chain: MIFPAAHRALRGLPRPGTRALTRAAMEVALRGVRKILCVAEKNDAAKGIADLLSGGRMRRREGLSRFNKIYEFDYHLCGQNVTMVMTSVSGHLLAHDFRMQFRKWQSCNPLVLFEAEIEKYCPENFVDIKKTLEREAQQCQALVIWTDCDREGENIGFEVIHVCKAVKPSLQVLRARFSEITTRAVRTACENLTEPDQRVSDAVDVRQELDLRIGAAFTRFQTLRLQKIFPEVLAEQLISYGSCQFPTLGFVVERFKAIQAFVPEVFHKIRVTHDHRDGVVEFSWKRHRLFNHTACLVLYQMCMEDPRAMVVEVRSKAKSKWRPQALDTVELEKLASRKLRINAKETMRIAEKLYTQGYISYPRTETNIFPKDLDLAALVEQQTPDPRWGAFARNILERGGPTPRNGNKSDQAHPPIHPTKYTDSLQGDEQRLYELIVRHFLACCSQDAQGQETTVEIDIAQERFVAHGLMILARNYLDVYPYDRWSDKTLPVYEQGTCFQPSTVEMVDGETSPPQLLTEADLIALMEKHGIGTDATHAEHIETIKARMYVGLTPDKRFLPGHLGMGLVEGYDSMGYEMSKPDLRAELEADLKLICEGKKDKLVVLHQQVQKYKQVFIEAVAKARKLDEALSQYFGAATEVAPQDALPAVPEPIRKCPQCSRDMVLKTRKSGGFYLGCTGFPECRSAVWFPDSVLEASRDVSVCPVCQPHPVYRLKFKFKRGSLPPTMPLEFVGCIGGCDETLREILALRFSQGAARVSQPASQTSGYLQASQSLNRMDSGQQGQPRPPVTRPSKALTRTLPPPAVESESNSVTCNCGQEALLLTVRKEGPNQGRQFYKCGSGGCSFFLWADSGHPGAGPPSSASRPPGGPLEHPPGSGTLLGGSSRPGSGGSGGASCLCGQPAVTRTVQKEGPNQGRQFHTCAQPREHQCGFFQWVDENVAPGTFGGPLWPGSRRGTQGLEARSKRPRAGSSDTGSATKKPRKCSLCHQPGHTRPFCPQNR
With B1 the Km was 0.0111 µM.
